T1: fluorophore-labeled thrombin substrate (fPR-x-S extended with glycine spacers and a C-terminal cysteine) on nanoworms
T1 sequence: GGFPRSGGGC

T2: D-stereoisomer of the thrombin substrate PLGLRSW on nanoworms
T2 sequence: PLGLRSW

T3: fluorescein-labeled thrombin-cleavable substrate PLGLRSW on nanoworms
T3 sequence: PLGLRSW

T4: D-isomer of the MMP9 substrate PLGVRGK on nanoworms
T4 sequence: PLGVRGK

T5: fluorophore-labeled thrombin substrate (fPR-x-S extended with glycine spacers and a C-terminal cysteine) on nanoworms (not fully specified)
T5 chain: GGFPRSGGGC

B1: FVIIa (Haematologic Technologies) (protein)
chain: ANAFLEELRPGSLERECKEEQCSFEEAREIFKDAERTKLFWISYSDGDQCASSPCQNGGSCKDQLQSYICFCLPAFEGRNCETHKDDQLICVNENGGCEQYCSDHTGTKRSCRCHEGYSLLADGVSCTPTVEYPCGKIPILEKRNASKPQGRIVGGKVCPKGECPWQVLLLVNGAQLCGGTLINTIWVVSAAHCFDKIKNWRNLIAVLGEHDLSEHDGDEQSRRVAQVIIPSTYVPGTTNHDIALLRLHQPVVLTDHVVPLCLPERTFSERTLAFVRFSLVSGWGQLLDRGATALELMVLNVPRLMTQDCLQQSRKVGDSPNITEYMFCAGYSDGSKDSCKGDSGGPHATHYRGTWYLTGIVSWGQGCATVGHFGVYTRVSQYIEWLQKLMRSEPRPGVLLRAPFP

Legend:
[1] = tested on: T1, fluorophore-labeled thrombin substrate (fPR-x-S extended with glycine spacers and a C-terminal cysteine) on nanoworms
[2] = tested on: T2, D-stereoisomer of the thrombin substrate PLGLRSW on nanoworms
[3] = tested on: T3, fluorescein-labeled thrombin-cleavable substrate PLGLRSW on nanoworms
[4] = tested on: T4, D-isomer of the MMP9 substrate PLGVRGK on nanoworms
[5] = molecular target: T5, fluorophore-labeled thrombin substrate …

Molecule | sample fluorescence (fluorogenic NW protease assay) [1] | also measured
FXIa (Haematologic Technologies) | negligible proteolysis was observed from the panel of non-cognate proteases | –
FIXa (Haematologic Technologies) | negligible proteolysis was observed from the panel of non-cognate proteases | –
activated protein C (Haematologic Technologies) | negligible proteolysis was observed from the panel of non-cognate proteases | –
recombinant thrombin (Haematologic Technologies) | – | sample fluorescence (fluorogenic NW protease assay) [2]: No increase in fluorescence was observed in the presence of Argatroban, a direct thrombin inhibitor, or when the substrate was synthesized with protease-resistant D-stereoisomers; sample fluorescence (fluorogenic NW protease assay) [3]: observed a rapid increase in sample fluorescence as cleaved peptide fragments released into solution fluoresced freely
FXa (Haematologic Technologies) | negligible proteolysis was observed from the panel of non-cognate proteases | –
recombinant MMP9 (R&D Systems) | – | sample fluorescence (fluorogenic NW protease assay) [4]: no activity when the broad-spectrum MMP inhibitor Marimastat or D-isomer substrates were used
B1 | – | sample fluorescence (fluorogenic NW protease assay) [5]: negligible proteolysis was observed from the panel of non-cognate proteases
